{"source": "paper PMC5016687", "about": "“The Effectors and Sensory Sites of Formaldehyde-responsive Regulator FrmR and Metal-sensing Variant” (The Journal of Biological Chemistry, 2016)", "molecules": {"B1": {"name": "frmRAPro (dsDNA)", "DNA 1": "TTCTGATAGTATACCCCCCTATAGTATATGGAG", "DNA 2": "CTCCATATACTATAGGGGGGTATACTATCAGAA"}, "B2": {"name": "rcnRAPro (dsDNA)", "DNA 1": "TACTCCCCCCCAGTATAGAATACTACCCCCCAGTA", "DNA 2": "TACTGGGGGGTAGTATTCTATACTGGGGGGGAGTA"}}, "key": {"RcnR [1]": {"target": "RcnR (Salmonella enterica, UniProt Q7CPV3)", "test": "biochemical"}, "FrmR [2]": {"target": "T1, FrmR (Salmonella enterica, UniProt A0A0H3NLH8, P2S)", "T1 construct": "gene SL1344_1558", "test": "biochemical"}, "FrmR [3]": {"target": "T2, FrmR (Salmonella enterica, UniProt A0A0H3NLH8, C35A)", "T2 construct": "gene SL1344_1558", "test": "biochemical"}, "FrmR [4]": {"target": "T3, FrmR (Salmonella enterica, UniProt A0A0H3NLH8)", "T3 construct": "gene SL1344_1558", "test": "biochemical"}, "[5]": {"target": "FrmR^E64H (Salmonella enterica serovar Typhimurium FrmR with Glu64 to His) (Salmonella enterica serovar Typhimurium strain SL1344)", "test": "crystal structure; FrmR E64H 0.5 mM in 400 mM NaCl, 1 mM EDTA, 1 mM DTT, 10 mM HEPES pH 7.0; crystals in 20 mM NaCl, 23% (w/v) PEG 4000, 10 mM BisTris pH 6.5, hanging drop vapor diffusion at 20 °C; one homotetramer in the asymmetric unit; 2.19 Å"}, "FrmRE64H": {"target": "FrmRE64H (Salmonella enterica serovar Typhimurium …, UniProt A0A0H3NLH8 2-91, E64H)", "test": "fluorescence anisotropy; 5 mM EDTA, apo; 10 mM HEPES pH 7.0, 60 mM NaCl, 240 mM KCl, 5 mM EDTA (or 5 uM NiCl2/CoCl2), 25 C, 10 nM DNA; anaerobic except FrmRC35A; Kd per tetramer (two nondissociable tet)", "details": "protein: recombinant; chain copies: 8"}, "FrmRP2S": {"target": "FrmRP2S (Salmonella enterica serovar Typhimurium …, UniProt A0A0H3NLH8 1-91, P2S)", "test": "fluorescence anisotropy; 5 mM EDTA, apo; 10 mM HEPES pH 7.0, 60 mM NaCl, 240 mM KCl, 5 mM EDTA (or 5 uM NiCl2/CoCl2), 25 C, 10 nM DNA; anaerobic except FrmRC35A; Kd per tetramer (two nondissociable tet)", "details": "protein: recombinant; chain copies: 8"}, "FrmR [6]": {"target": "FrmR (Salmonella enterica serovar Typhimurium …, UniProt A0A0H3NLH8 2-91)", "test": "fluorescence anisotropy; 800 uM GSH, 5 mM EDTA; 10 mM HEPES pH 7.0, 60 mM NaCl, 240 mM KCl, 5 mM EDTA (or 5 uM NiCl2/CoCl2), 25 C, 10 nM DNA; anaerobic except FrmRC35A; Kd per tetramer (two nondissociable tet)", "details": "protein: recombinant; chain copies: 8"}, "RcnRS2P": {"target": "RcnRS2P (Salmonella enterica serovar Typhimurium …, UniProt Q7CPV3 1-90, S2P)", "test": "fluorescence anisotropy; 5 mM EDTA, apo; 10 mM HEPES pH 7.0, 60 mM NaCl, 240 mM KCl, 5 mM EDTA (or 5 uM NiCl2/CoCl2), 25 C, 10 nM DNA; anaerobic except FrmRC35A; Kd per tetramer (two nondissociable tet)", "details": "protein: recombinant; chain copies: 8; label: 5'-HEX on strand 1; blunt"}, "RcnR [7]": {"target": "T4, RcnR (Salmonella enterica serovar Typhimurium …, UniProt Q7CPV3 1-90)", "T4 sequence": "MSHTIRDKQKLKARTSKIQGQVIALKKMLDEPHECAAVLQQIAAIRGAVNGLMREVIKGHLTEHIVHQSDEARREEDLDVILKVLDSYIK", "test": "fluorescence anisotropy; 5 mM EDTA, apo; 10 mM HEPES pH 7.0, 60 mM NaCl, 240 mM KCl, 5 mM EDTA (or 5 uM NiCl2/CoCl2), 25 C, 10 nM DNA; anaerobic except FrmRC35A; Kd per tetramer (two nondissociable tet)", "details": "protein: recombinant; chain copies: 8; label: 5'-HEX on strand 1; blunt"}}, "data": [{"molecule": "C=O", "note": "[formaldehyde]", "values": [{"measurement": "Kd", "setting": "RcnR [1]", "value": "> 100000", "unit": "nM"}, {"measurement": "Kd", "setting": "FrmR [2]", "value": "> 50000", "unit": "nM"}, {"measurement": "Kd", "setting": "FrmR [3]", "value": "> 100000", "unit": "nM"}, {"measurement": "Kd", "setting": "FrmR [4]", "value": "10000 to 20000", "unit": "nM"}]}, {"molecule": "FrmR^E64H (Salmonella enterica serovar Typhimurium FrmR with Glu64 to His) (natural protein)", "values": [{"measurement": "stoichiometry N", "setting": "[5]", "value": 4}]}, {"molecule": "B1", "values": [{"measurement": "binding result", "setting": "FrmRE64H", "value": "binds"}, {"measurement": "Kd", "setting": "FrmRP2S", "value": 150, "unit": "nM"}, {"measurement": "binding signal", "setting": "FrmR [6]", "value": "~2.5", "unit": "fold tighter Kd vs apo"}]}, {"molecule": "B2", "values": [{"measurement": "Kd", "setting": "RcnRS2P", "value": 160, "unit": "nM"}, {"measurement": "Kd", "setting": "RcnR [7]", "value": 150, "unit": "nM"}]}]}
